# Publication PMC13043311, “2′-O-Methyl-guanosine RNA fragments antagonize TLR7 and TLR8 to limit autoimmunity”
# Residue numbers refer to the chain shown, from its start.
# T1: TLR7 F506L (Macaca mulatta, UniProt B3Y653 27-839, F506L)
# T1 sequence: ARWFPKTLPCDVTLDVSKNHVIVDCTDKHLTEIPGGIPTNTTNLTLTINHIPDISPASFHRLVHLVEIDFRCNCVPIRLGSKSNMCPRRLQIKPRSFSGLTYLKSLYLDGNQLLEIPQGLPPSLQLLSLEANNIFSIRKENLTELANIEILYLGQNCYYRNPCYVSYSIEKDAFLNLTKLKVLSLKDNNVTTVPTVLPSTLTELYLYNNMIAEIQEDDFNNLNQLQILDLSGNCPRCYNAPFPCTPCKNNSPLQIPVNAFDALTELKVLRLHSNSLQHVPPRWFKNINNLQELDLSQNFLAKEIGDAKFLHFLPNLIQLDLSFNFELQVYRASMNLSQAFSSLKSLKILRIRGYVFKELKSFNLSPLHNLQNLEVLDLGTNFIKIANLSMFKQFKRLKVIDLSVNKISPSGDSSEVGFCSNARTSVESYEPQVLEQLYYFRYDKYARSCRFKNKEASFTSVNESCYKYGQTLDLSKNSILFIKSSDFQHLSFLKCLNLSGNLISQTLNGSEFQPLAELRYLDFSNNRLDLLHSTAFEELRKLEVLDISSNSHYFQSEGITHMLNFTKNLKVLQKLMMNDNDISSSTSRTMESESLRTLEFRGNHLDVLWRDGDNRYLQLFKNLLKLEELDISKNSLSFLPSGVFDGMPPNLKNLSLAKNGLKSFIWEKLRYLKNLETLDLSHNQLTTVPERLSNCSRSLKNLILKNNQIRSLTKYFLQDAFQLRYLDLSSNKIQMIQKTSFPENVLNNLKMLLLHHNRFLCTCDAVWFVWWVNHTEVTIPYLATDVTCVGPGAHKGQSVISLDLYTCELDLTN
# T2: TLR7 P435S (Macaca mulatta, UniProt B3Y653 27-839, P435S)
# T2 sequence: T1 sequence with P409S, L480F
# T3: TLR7 T406S (Macaca mulatta, UniProt B3Y653 27-839, T406S)
# T3 sequence: T1 sequence with T380S, L480F
# Experiments:
# Conditions in all cases: protein: recombinant; chain copies: 2; single-stranded
# [1] = target: T1, TLR7 F506L; experiment: SPR; mean computed from runs 4±0.5, 5±0.6, 5±2; SPR with recombinant TLR7/TLR8; buffer, pH and temperature not in the material
# [2] = target: T2, TLR7 P435S; experiment: SPR; mean computed from runs 5±0.6, 6±0.7, 6±0.7; SPR with recombinant TLR7/TLR8; buffer, pH and temperature not in the material
# [3] = target: T3, TLR7 T406S; experiment: SPR; mean computed from runs 0.5±0.09, 0.6±0.1, 0.6±0.1; SPR with recombinant TLR7/TLR8; buffer, pH and temperature not in the material
binder,measurement,setting,value
"GUC (XNA, 2'-OMe G1, RNA U2 C3; phosphorothioate linkages) [mGrUrC PS]",Kd,[1],4.67 µM
same,Kd,[2],5.67 µM
same,Kd,[3],0.57 µM
